Reference: patent US20250042976A1 (ROCHE DIAGNOSTICS OPERATIONS, published 2025)

Assays:
RBD Omikron = RBD Omikron (SARS-CoV-2, Omicron variant)
RBD-L452Q F490S = RBD-L452Q F490S (SARS-CoV-2, UniProt P0DTC2)
RBD-E406W = RBD-E406W (SARS-CoV-2, UniProt P0DTC2)
RBD-E484K = RBD-E484K (SARS-CoV-2, UniProt P0DTC2)

B1: Antibody 1F12 (antibody, V domains shown)
VH: QSLEESGGDLVKPGASLTLTCTASGFSFSNNYVMCWVRQAPGKGLEWIGCINTGSGSTYYATWAKGRFTISKISSTTVTLQMTSLTAADTATYFCARSTTYYNYIGGNWIYVMDGFNLWGPGTLVPVSS
VL: AQVLTQTPSSVSEPVGGTVTINCQASENIYSSLAWYQQKPGQPPKLLIYDASDLASGVPSRFSGSGSGTEYTLTISGVECDDAATYYCQQGYTVDNIDNTFGGGTEVVVK
Kd (RBD Omikron): 0.28 nM
koff (RBD Omikron): 0.0012 s⁻¹
kon (RBD Omikron): 2e+06 M⁻¹ s⁻¹
Kd (RBD-L452Q F490S): 0.33 nM
koff (RBD-L452Q F490S): 0.0019 s⁻¹
kon (RBD-L452Q F490S): 5.8e+06 M⁻¹ s⁻¹
Kd (RBD-E406W): 0.75 nM
koff (RBD-E406W): 0.0016 s⁻¹
kon (RBD-E406W): 2.1e+06 M⁻¹ s⁻¹
Kd (RBD-E484K): 0.31 nM
koff (RBD-E484K): 0.00081 s⁻¹
kon (RBD-E484K): 2.6e+06 M⁻¹ s⁻¹
